# Assay results taken from the NTF2 design screens of Basanta et al. (2020).
# Test: protease stability score; higher = more stable; yeast display proteolysis, trypsin and chymotrypsin;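 further: relative to predicted unfolded state with 0 unfolded-like and 1 meaning tenfold more protease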
row,Sequence,protease stability score
1,SEEEHELDHIAKEFLRVYLTGDEDELRKLMDPNARVDINGREMIGMELILKDLRDRLEHLGIKHSHITIREVQNFDGQIHIRGHIRIEIGNKRLEFDSRIIMHVIDGRLRSFHVIFI,1.92
2,SEEEHELKHWMKLFKHMIETGDWDSLVHYLDPHTRMHVGEFHHHGRHLMLKAFHDFLREMGAKHSDHKDSEITIQGDKVELTLDTRSQVGDKEFNVRIININRKVNGRWIIHSIIIEVE,1.09
3,SEEEHEMERHEREFRDVAETGDERDWTNLADPNVRFEDEDEVLVGREDWHEYVRRVDHFHVRRLDYEHFSVIDGRIDIEGNMDIELNFDGQSHRMRVHVRIITTKINGVWLFESVHIQ,1.75
4,SEEEHEQENWARLMLHLFLTGDEEILLELFDPNVRSDVDGRKFHGRDEVSHAIRWILEHFGFKHSHVRHFEIYNGRVHSEVEINVDGVRLTLHIHLNIYNGRLKDSEFRLK,0.967
5,SEEEHFAKELHKLFLEWWKTGDEEHLLEFADPDARSEIGDKRHHGREEVSRELLEFRRRIPGVQIRHQHVSVHLIDGKLTTHLHFRVNFNGVEFHETIIYYNDKYNGKWHLKSIIVTIE,0.954
6,SEEEHHAEEFVKIFTMTNLTGDFTTLEKLADPNVQIDVGDKHFHGREEMLKLIQDERREFGFKHLHLEIDRIETQGNFLDVHITVIIRVNGVEMRHKRRLTILKIDGQWHIKSVEVD,1.27
7,SEEEHHAKKIAEDFLRWFITGDEDVLSHYADPDVRSRIGDKHHHGREELRRVMERLVRELRIKEIRIERYEVQGEKAILDSRVRGDVNGVEVEVRQIVIVVVIDGRLKSMELRLG,0.516
8,SEEEHHARYMTQLFLHALETGDWHELRRMADPNMRLRVRVGDKHWHYHGWEHLHELLESFLKRVDHVEFIERSIHVQGEKSRFRGDVREHVGDKEHTHHIILILDIVNGKIHRIIIINE,1.37
9,SEEEHHDRLMTDFFIEIMRTGDEKEFIDLFDPHDRTHIDGVDAHGREIAVELLHLFLRKLGFDHIRVTDVHVYNGKVELHMRSDQGDKHVEVQIHSVVYNGKLQHLHVKIRTL,1.63
10,SEEEHHDRMVSHLWIKLWSTGDEDRIRELLDPNAKFELEQGDKEVHDHGRESIAKWLEIMFRHLGVKHFRLEHVHVFNGRIEVIMRLDVGDKHITIILRTQVIDGRIKSFVIETRHK,1.17
11,SEEEHHFERWMRVFLHSMRTGDPSSFEELLDPNTRFIYGDKERHGREEANKWAHHLRITHMEDTDFDVYDGVLTIDIRLDFVVNGRRHEVKTHLLVVKIDGRWLINEVEIK,0.514
12,SEEEHHVVRMMELLIDLLMTGDEEVFDSLVDPDVKSNINGVHSVGMESINEIFRRYVDFFKNVKVDVHLRDREAQGDKHITYGVRIERFDGKQFTIDTRLELKVVNGRIKDVKVDIK,1.46
13,SEEEHISERAMELLSESIRTGNEHLISKLADPHTRMLYGDKELHGRSRWSEWASRVKNMRFETHEVRVVGDKIRSDVRSNFDGRLHIEHLYILKIDGRWVLDKIEIE,0.246
14,SEEEHITKLALDMWFTSLLTGDEHTFRHLLDPNVRVHIDGREYHGREHWRDLLTYLLTHLGVDHMEFRTRDQDVVGDKITLVTEIIIHVGDKNLSFESELIVAKVDGRWRIRSEDYR,0.645
15,SEEEHIVKEAVRLWYEAVHTGDPHTLNEFLDPHMRIEIGDKEKHGRHELKKLTEHIRIERLEFTLTHMKIVGNKAHVYGHLRFEGDWDGQRIHTEVETRLHIIKYDGKWMTEEVHIR,1.97
16,SEEEHKIRKLLEDLANFIRTGDEHRINELLDPNVMIDINGQKFHGRESLETVYHEWLKRVDHIEDLRIDDISKQGEFLIMHANMTLRQGDKHHRENVHIIILKVDGRWIMTSILFR,2.2
17,SEEEHLAREMTELHKQAELTGDEHFLNELMDPHVRIDINGVPAIGWEESNEVLKRIWEEMRIDDIRPTHVELQGNKIHVHVQSHITIDGQRRIFHERIVIVVFNGRMREVKFDIH,1.19
18,SEEEHLFEFVIRVIYHAMKTGDWEFWERYLDPHVRYQQGDKEHHGRKMTLHYLERLSDELGVTRIEVDLKHIHVYNGRVEIIGELNINGRRTEVRITSEKINGRWTVKELHIV,1.55
19,SEEEHLLKFFLDVLMDLHSTGDERKLYELFDPNVRIEYDGKETHGRERAREQFQEMRVRVEHVHIKDLTLQGDKVIIDTKVDMTIHIDGKTIREDRKLQVDFDKVDGRWTVHELIFR,1.13
20,SEEEHLLREILERIIHIYSTGDEQILKHLMDPHVKITVEVNGRRIIFHGMEQYIQWYRDLGFDHSKVKLRDHRIIGDKAHAVTELEIHFDGKRREEETREVIVVIDGRLTTWHTSVN,0.898
21,SEEEHLMRELLEVFLRNMLTGDWDKTAKLADPDTRFRAHVGDFKVERHGMEQFIKWLKDEREQWRIRRIHIDRIELVDGVIRVEGTIDVEYDGVREVERSELILVIIDGRIHEVEVHIR,1.44
22,SEEEHLSKLTKKHMLHLWETGNETILEELADPNARHRWLVNGKEVTAHGREEVTRLFRDILDELGVDHLKLHSETVIGEKIHFDMIMIIGEFESRVRLNLHIVNGRIKEIDLQEQ,0.445
23,SEEEHMIELIVKWYSRALETGDEEELAEMLDPNTRLDVDGKDIHGRENILKRRKKHLDHLGHERIEIHFDVSHIDYIGDKVIIHVKLILHYNGREIHLDVKMLIVKINGRWRFRHFESK,1.93
24,SEEEHMLEAFFEDVLQLVMTGDEHRLKHLFDPNVRVETEHEHFHGRELFLQRMLEIRIHDFHIHDFEVQGDKAHVDGRVEGTIDGRTNHWTFTLILEKIDGRWLANKVTWH,1.55
25,SEEEHRMREILDLLTESFHTGDERIHLEYADPHARFDIGDKHIHGRELFTKRWKEWLERFKNITLQLRIDDVSIIDGVFVVEGTLTIRINGVEIERDTHIFLYIVDGRVSTMKRTIH,-0.116

row,Sequence,protease stability score
1,SEEEHRSELAVELVHYTLMTGDFHLIERLVDPNVKLRILIGDKEYDLHGWKEVYRFMVTFGFDHMELKTFDLQGDKLNIDLRLHVDGRNVETSIVALKVNGKWINESEHYRIK,0.464
2,SEEEHRVKELARLFVEVLLTGDWKTLLELMDPNTRLRINGKDFIGMEDAVKAWRDYLDEIRHDDIKLTRIENNEDHSHLDGRQHGIYNGQRTDTILNVDIHMVNGKIKEVHIEIE,1.01
3,SEEEHRVKELSELMLHWFKTGDEETMDHLMDPDARFELQVGDKEVHSHGWESVHKVLRRTLFWLGADHYNDKDFKHQGDKSKIDMTVHVGDKTVEVTLHLKIVDGRLKFLEIRVK,1.16
4,SEEEHTSEEALRAFVFLELTGDEKSLIELLDPRTRIHAENHEVVGRERATEEWRRWLEFYKNIRVHDVEIEEIHLIDGRIKLIMRRDGVINGVKRETHIRMITNKVNGRWLVHSIIIR,1.37
5,SEEEHVAEELIKQFLRKFSTGDEDSMRNLFDPNVKIEQGEFDIHGREEETRYFRELRVHIEDSTAREIRVQGDKVDIDLEVVGIVHFNGKTVRRIIRTRVHLLKVDGQWHIKSIQIL,1.24
6,SEEEHVAKKLSDLILHAWRTGDEDQLSRLMDPHVRMIIGDKHLHGREEVSRWLHDWRRQVDHVEFHVKRFHVQGNKYTNDGHFVVHQGDKETRTDVEIILIVVDGKIHEIRIIIR,2.17
7,SEEEHVLEFIVKLFLEAWLTGDEDIIDWLVDPHTRLHVNGVDLHGREEVSHFLAHIRVEQLHIDDERITNINGVLHVDIKTEERFDVNGRVTRTKSELHIFIRKVDGRWFIQVFKIVYH,0.332
8,SEEEHVMVEIVRKLTEAKHTGDFKTEHELMDPHARIDINGVEIHGMEEWRHLYEEWRFIVHRTHVRHVHVQGDKVDLKGEFRGVIDYDGREIEYNTKVNLHLHKVDGRWQLHDVKTT,0.552
9,SEEEHVTDLALELWIRTHNTGNWHLLKRLLDPNTRVQVGNKIYHGMELISKEIFRKLLEMGFETHIEVEDSEYFEGHVRFRITIRLVVGDKEIILDTELLMIKFNGRWFITEIRIE,0.686
10,SEEEHWLDDAFRWLIELIFTGDETEIEKMIDPNVKIHIGEKNNHGREIMIEWLERLGVKHVREMRIRHVHRQGNKLIVHGEIHREVDGVKIETESLIVAKKVDGQWHLQSVRVN,2.37
11,SEEEHWVELLIELLERTQKTGDEHSFERLMDPNVRIIIGDKVMHGREEASRWMHEARVHETRIEHIRIINGRAHIDSRERGEINGREINLRVEIISSKVDGRWVITEVRVE,0.943
12,SEEEHWVREFEEAVRHDAETGDENSISEFLDPNVRVDINGKELHGRELMDEMIRHFLERYDHIRIHIHDNRLIDGRVEMDIRLYFIQGEKHMEIDSERFIFKVDGKWRLEEVRIK,0.3
13,SEEEHYMLKVAKLAVRNYFTGNEHVLDELFDPHTRQEVNGVENHGRETVRDFLREHLKHMRFHDFKIRDFKWQGDKAHTETETDVEIDGQRIPLRMEIIIIIIDGVPKSISLRLG,1.05
14,SEEEHYRREMIHFSREVWETGDWDSLMNLADPNVRIEAENHDLHGREFFVKLMEEISRKFKNVRIIIRHLHIQGDKVEMHSEIIFNGRSVHVTFFALKVNGRWIFKEMVFI,0.925
15,SEEEIMTKLAEKILKMHWDTGDERIRKELADPHVRIDQGDFNLHGWEVLHLTLNLLGVTKFRLHILEIHDVSMQGDKIEMDIEVHMHVNGRKISFRVQVHSIKIDGKWKQHSLIIH,0.153
16,SEEEKAFKESYDVWIEALKTGNEEESREMFDPTPLQVVNGQELHGRDHIEQEVSEWRIDHVDIDELRLQGDKAILHGRVSGHINGKRVKFEEKLVMHKIDGRWFIRSVIVR,0.333
17,SEEEKAIIDLFKLWIHAFVTGDEEKLSELMDPRVRLTVGDKHLHGMEIVVEWYRRLRDKIKNLQFRSFEIEDFRIVNGRVELEAVIHIHFNGQMRTIEVRFILEKVDGRWFLKSVEEK,2.57
18,SEEEKDARDFIDYLVHHLETGDEEEFEKLIDPHTRLQVDGRHFHGREAYEWMLYQFKNVKIKHLTIRHIEIQGDKVHITSTWNLIVDGQEKELRTHIILDKVNGRWMIRKMRIQ,1.8
19,SEEEKDATDMLEHYIRSLLTGDEHLWRELADPNVKTEIDGVEMIGRESWRILVERLGVDHSDVEDIDFRFYDGRLNVRVKTRHHVNGRTFETELIVIIEKINGRWRVTQIEIRIK,2.5
20,SEEEKDIKNAFRLLVKIIRTGDWEDHHKQMDPDVLIIVGDKEHHGWEEASRFMKEHLERVDHEDLKLRRVHIQGEKMELDGELFVNVDGRLIRMRVIFFLNKVNGRWVIHSLEIR,2.28
21,SEEEKDNKLAIHLTMEILRTGDEEHSKKMIDPDARHQQGDKELHGMEEVSTEIMEIWRRYKGVKFEVKRVHMQGEFIKIKVDLHVNGQTLDVIIVLYKVDGRWTIHSIHVH,1.48
22,SEEEKEAEDILRMVIHVLRTGDWHTLKNMLDPHAKNDVNGREQVGMRDWIETFTRIHRELGISNIDFKLHDIRITEHHVLVDGILIFNGKEYRLNLIITKINGRWVNEHIHLH,1.08
23,SEEEKEAEEAMKRSLRSLETGDEELLDEMADPDVRLHVGEFQLIGRESFRKHQRRLTKRFKNMRFHIHRMEVYGEKLSIFGRFHWDGVDTETEIIEVKINGRWFLREVHIR,0.639
24,SEEEKEAEEFLRKHLHDRLTGDEDWVLRNIDPNARFDINGREIIGMEEWRQWLHEARVRVDDTQIDEKRSVGNKLDVRSTMHVTIEFDGVRVKHILDVELIMTKVDGKWKVKEVRVR,1.61
25,SEEEKEAERMLRLWIETVKTGNEEVWRELFDPNARMLIGDKESVGREQIEELVRSVYDRLGAKVIHDFYIDRIHVIGDKVEIDSRVDSIINGRRYHLETHIIFVKINGKWVLKSVELR,2.06
